Where “and” joins values, the source holds several entries; their conditions need not be identical. Equal entries are not always repeated.

In data set [1] the target is γ-tubulin small complex (γTuSC) with γ-tubulin^S48C/S153C, Spc97-YFP and Spc98-CFP (budding yeast) (UniProt P53378). The experiment in a line: FRET or BRET. A general note: BRET reads energy transfer from a luciferase to a nearby fluorophore.
For data set [2], the target named is E. coli-expressed GST-Spc110p^1-220 (budding yeast) (UniProt P32380). The experiment in a line: SEC-MALS.
The data set “SEC-MALS” concerns the molecule itself. The data set is described as follows: SEC-MALS. Background: In gel filtration, larger molecules generally elute earlier.

By Kd is commonly meant the constant that tells how readily two partners part at equilibrium. Read a low Kd as tighter binding. In data set [1], “Spc110p^1-220 tetramer (Spc110p^1-220 fused with the tetramer-forming mutant coiled-coil domain of GCN4, GCN4-LI) (from UniProt P32380 1-220)” came in with a Kd of 4 nM; a Kd2 (Spc110p tetramer with a single γTuSC) of 43 nM; a Kd3 (a second γTuSC binding to the complex of Spc110p tetramer and one γTuSC) of 3 nM.

As usually defined, the stoichiometry N is a count of units in the complex or per binding partner. Regarding “E. coli-expressed GST-Spc110p^1-220 (from UniProt P32380 1-220) (domain or fragment)”, the stoichiometry N in data set [2] was 2 and 4.

B1: Untagged Spc110p^1-220 (domain or fragment, budding yeast, UniProt P32380 1-220, looked up)
chain: MDEASHLPNGSLKNMEFTPVGFIKSKRNTTQTQVVSPTKVPNANNGDENEGPVKKRQRRSIDDTIDSTRLFSEASQFDDSFPEIKANIPPSPRSGNVDKSRKRNLIDDLKKDVPMSQPLKEQEVREHQMKKERFDRALESKLLGKRHITYANSDISNKELYINEIKSLKHEIKELRKEKNDTLNNYDTLEEETDDLKNRLQALEKELDAKNKIVNSRKVD
As for B1, the “stoichiometry N” value in “SEC-MALS” was 2.

(Values after publication PMC4945142 (Molecular Biology of the Cell, 2016).)
